This is an account of results in paper PMC2646761.

Substrate in this data set: CC#CC(=O)C(=O)O
As to the kind of experiment: purified protein. The format is biochemical, Corynebacterium glutamicum. The conditions noted are these: hydration of 2-oxo-3-pentynoate; typical value of the enzyme preparations used.

B1: Cg10062 (Corynebacterium glutamicum ATCC 13032) (protein)
chain: PTYTCWSQRIRISREAKQRIAEAITDAHHELAHAPKYLVQVIFNEVEPDSYFIAAQSASENHIWVQATIRSGRTEKQKEELLLRLTQEIALILGIPNEEVWVYITEIPGSNMTEYGRLLMEPGEEEKWFNSLPEGLRERLTELEGSSE
In the case of B1, the Km was 4.2 ± 0.3 mM and the kcat amounted to 0.16 ± 0.01 s⁻¹.
